# Assay: soluble on expression in E. coli; label from the status in PepcDB or PDB records
row,Sequence,soluble on expression in E. coli
1,MGSDKIHHHHHHMSLKQMECVVAVAKLRSFTKAAAKLKVAQPSLSQSIQAVEKQVGVPLFDRSTFPITLTHAGEVYVAKANAIIELYKDLNTQMCDVIGSDKGPLRLGFSQTGYQFIPTALAKFCKRFPCADLRVVQVFSTLKLEKMLSEGDIDIATLVLPLSSPEIDYKIIKENQAFLALPITHPLSQKAIREAQDSPSVSLEELKEERFILPKSTQRSRPIFDEIFRKAGFEPKIFCETETFDIANAIVASGVGACFTLPQFIKEDKQDKVVLFHVDEPLLARTVVLAYRKDKHLSKMACEFLTIARSL,not soluble
2,MAHHHHHHMESINRNNNINKNEIDNKINNNNNMDVPIEGNEKSQEGDIIGQFGVGFYSSFVVSNKVEVFTRSYDNNSSKGYHWVSYGNGTFTLKEVDNIPKGTKIICHLKDSCKEFSNIQNVQKIVEKFSSFINFPVYVLKKKKILQTRKDIEQNELNDHTQQNELNHHNDQNDHTQQNELNHHNDQNDHTQQNELNHHNDQNDHTQQNELNHHVEHHKNVVENKNDEYEKNMDNRTSDNIKPESLSKQNDYENMNQCNNEETVLNRTKELNEEHIVEEILVNKQKPLWCKDNVTEEEHRHFFHFLNKNKSYNEDNKSYLYNMLYKTDAPLSIKSVFYIPEEAPSRLFQQSNDIEISLYCKKVLVKKNADNIIPKWLYFVKGVIDCEDMPLNISRENMQDSSLINKLSRVVVSKILKTLEREADINEEKYLKFYKNYNYNLKEGVLEDSNKNHYKNSLMNLLRFYSINQNKFISLKQYVNNFRNNQKNIYYFSANDKNVALNSPYMEPFKKQNIDVLLLLEEIDEFVLMNLQTYKDAKFVSIDTSQNEDFDEAVLNTNKNDNEKKQSIFFNDEQKKELQAYFKQVLGSKCSDVKFSERLTTSPAVVTGFLSPTLRKVMKATMKNSDFNDNTNNSNNMNMFQNLPATLELNPSHTIVTSIYHLKNTNQEVAKLLVQQLYDNACIAAGILEDPRSLLSKLNELLLLTARYAYHYEKKDIQENTKDQPIDVKDNTMAIDNIVNTKENNTNDDSVMKEAQSSNL,not soluble
3,MKSSEEQALAGIELDDDAVMQYLLQNPDFFIRNARLVEQMHIPHPVRGTVSLVEWQLGRQRNQIGQLEEEITLLMEQAGLNEVLFNRLLQLQGNLAAASSLQDMLNRLQRWARDFGLAGANVRLFTDRWQIGAPSDFTHLGLSRHAFEPMRIQRLGNARHYLGSLNGPELLLLLPQAKQVGSVALSLLGKEGDLGVIVFSSRDIQHYQQGMGTVMLNQLSMLLPSLLERWIEPVLEHHHHHH,not soluble
4,MGSDKIHHHHHHMENIAQWVGIDVSKATLDVYIRPLGKAMIVANTESEISNLVKLLLSYSLNLIVLEATGGLETELVIQLQAALLPVALINPRQGRDFAKATGKLAKTDAIDAQILAHFGEAMKPQVLAIQSETARQLSELISRRRQLVEMQTAEKNRRSLTRGQALADIEAHIEYLEEHLKQLNQKIAELTQNNLQWIDKVNLLKSTPGIGQVISTTLVSDLPELGQLTAKQISRLVGVAPINHDSGQHKGKRMINGGRAHVRATLYMGAVVAMVHNPVIKAFYERLIERGKSKKLALTACVHKMLVILNAMVRDNLPWRVTENLQPIANA,not soluble
5,MTDESDSTAHVSCIIPVYNDSVGIKNTLRSVVGQEYHGYDVYVVDNGSTDGSRRRVRNCAAESDDIQLLVEDEVQGSYAARKTGVQNAESDVLAFLDADETVDEDWLETALGAMQEQDVDYLGCNVELTCPEDTLVGRYNARTGFPVEEYLEDQNYAPTCALLVRRKVFEDVGPFDARLISGGDREFGDRVHDAGYEQGYAENATVYHPARTSLESLAKKNFRVGRGFCQKQRYYPERYGKPGIPPTPSGPSGGDDGDEPDASLTRLAFTLLSIAMLACRGVGYYYEFVVGEENDDIPAPTSLEHHHHHH,not soluble
6,MGSDKIHHHHHHMAAVALDQYLASVLKSSASDKNEIKLEAGNPDFDLFTIYLENHNTGIHRYRMDVSTILYVAKGTVTIKSAEKVINMRTGNVLLLTEGCKYEVSGQNDDTVLAKLKFAPGFEYRKYFNDFSYKGNRENKIIEQISDSLENEHVLWLKNNQITSASQVMQHIIGGYLDDELFAKALIQAELTAMLIISIRTQRMATPTNLDKTKFEKKSLDNYIDNHFADISLADAAKYFGFNPNYFSNMVKAKTGKSFVDHVGERRMQEARELLAQPDISLKEIISRVGYSSKSFFYKKFNQYYNMTPAAMRKELFRQANINLR,not soluble
7,MSLGKFLVEREQMRYPVDVYTGKIQAYPEGKPSAIAKIQVDGELMLTELGLEGDEQAEKKVHGGPDRALCHYPREHYLYWAREFPEQAELFVAPAFGENLSTDGLTESNVYMGDIFRWGEALIQVSQPRSPCYKLNYHFDISDIAQLMQNTGKVGWLYSVIAPGKVSADAPLELVSRVSDVTVQEAAAIAWHMPFDDDQYHRLLSAAGLSKSWTRTMQKRRLSGKIEDFSRRLWGKEGGSHHHHHH,soluble
8,SLAPQPLKKGEKAIDVASVVRQKMPASVKDRDAWAKDLATTFESQGLAPTLENVCSVLAVAQQESNYQADPAVPGLSKIAWQEIDRRAERMHIPAFLVHTALKIKSPNGKSYSERLDSVRTEKQLSAIFDDLISMVPMGQTLFGSLNPVRTGGPMQVSIAFAEQHTKGYPWKMDGTVRQEVFSRRGGLWFGTYHLLNYPASYSAPIYRFADFNAGWYASRNAAFQNAVSKASGVKLALDGDLIRYDSKEPGKTELATRKLAGKLGMSDSEIRRQLEKGDSFSFEETALYKKVYQLAEAKTGKSLPREMLPGIQLESPKITRNLTTAWFAKRVDERRARCMKQ,soluble
9,MEFRQLRSFVEVVRQGSFTQAAQVRHASQSTISKQVAQLEQSLGVQVLERNGPHVRLTDAGAVVFRRAEEMLRLRRDLLSELDDLSQLNRGELRLGLPLLGADALFAQRFAEYRRRYPNIAVHLVEGGSKTMEQAVLAGELELAGSLTPADDGFDYQPFCNEPLDVLLPAGHPKAAAASVALGELADSPFLLYQQSFTLNDRLLRACLEAGFSPREGGRSGQADFLGALVAANQGVVLLPRVIAREIERPGVVRVLLREPDLRWDIAFIWRRGGYLSRAAQAWLELLREQPLEESPA,not soluble
10,MAHHHHHHMESNNHTTDLPSHAPGVEAAPIAAATPPLTGLAEGAVVTEGASHPKMAAAEPSEATATESPPSPHSTGEAKTQNALAALMSVLDNDEAARRGGTSLRSLQKMCMRVPQLSTELTRPQRFQLYCLLLLEDGDDPAVPGGAAGQEDWTTYTKQALETHVHMAKQAAALFPPPSTSPPTNSPASSTAWAPMRPFTSIRQ,soluble
11,MSVVSERDVDEYSKQKPETYVLQVSERERKEKYERKNPPIPLDNEYNYQDVTPSPFPFHIDAPSLVFMGRLGEEPISAHFTLTNRTCKPFWFKIKVSSRELFKVRPTNGKLENSERVVIRVIFYPNVRVPKPFCEYLHVYALFAGLGDRTAYEAFNRLDRQRTLPPKRLFTEFVWHPNIGMTQAYENGKLMEMMRAKQKLLDYRKDENDKIKTFQVDFNNVIFDHRNRVLDRMLKANVVEKEKLLYMPTPNLNLYMQNLRNQKNRSKLAVLLERRGDAFKGVQNLYAEEVLAKRTGDKMFEKYKKKKGTKGYQSLDAKLYRPVKVVRNTKNKKKKGKK,not soluble
12,MGSDKIHHHHHHMFTQATFDFLAALEANNERDWFKANQHTYEDKVRTPALALIEAAAPAIVALSPRLTAVAKKVGGSLMRPQRDTRFGHDKRPYKTNVGIQFRHFQGKDVHAPGLYLHIANDGCFVAAGIWHPESKALNAIRSCIDENPATYQKALKALTDSGFAMDGDSLSRPPRGYDKRHPLIDELKRKDFIAVKSLTNHEVLQPDFASRLVAEFEHCQQLMRYLCFALELDY,not soluble
13,MPIDDNIIIADEAVIHPGDLHEDFIRSSGPGGQNVNKVATAVQLRFDAANAAGLSERVRARTIKLAGQRATKDGVIVIEAGRFRTQEQNRADARARLTALVAKAAEPPPPPRKKTRPSKGAVERRLKSKAGRGTIKKLRGRVGDDLEHHHHHH,soluble
14,MKHDHFIVQSPAAPAQQLLLLFHGVGDNPVSMGQIGSWFAPQFPDALIVSIGGVEPCGPNGRQWFSLQGVTEENRQQRIDAIMPTFIEIVRYWQEKSGVSPLATALIGFSQGAIMSLESIKAAPDLASRVIAFNGRYATLPETATTATTIHLIHGGEDRVIDLAWAVSAEEALQQAGGDVTLDIVDDLGHAIDDRSMQLAIERLRYTVPKHY,not soluble
15,GAPSQGATANAETQTTIPLGDTSQNALDWPGVYEGVLPCASCEGIQTTLTLQADNSFELKSIYLGKDESIFKVAGKFDWDSNGSKITLSDGSKYLVGENQLLMLDTEGNRITGGLAEHYILKKKGM,soluble
16,MPKYYEDKPQGGACAGLKEDLGACLLQSDCVVQEGKSPRQCLKEGYCNSLKYAFFECKRSVLDNRARFRGRKGY,not soluble
17,MERVNVVGAGLAGSEAAWTLLRLGVPVRLFEMRPKRMTPAHGTDRFAEIVCSNSLGGEGETNAKGLLQAEMRRAGSLVMEAADLARVPAGGALAVDREEFSGYITERLTGHPLLEVVREEVREIPPGITVLATGPLTSEALAEALKRRFGDHFLAYYDAASPIVLYESIDLTKCFRAGRYGQSADYLNCPMTEEEYRRFHQALLEAQRHTPHDWEKLEFFEACVPVEELARRGYQTLLFGPMKPVGLVDPRTGKEPFAVVQLRQEDKAGRMWSLVGFQTGLKWPEQKRLIQMIPGLENAEIVRYGVMHRNTYLNAPRLLGETLEFREAEGLYAAGVLAGVEGYLESAATGFLAGLNAARKALGLPPVAPPEESMLGGLVRYLATANPEGFQPMYANWGLVPPVEGRMGKKEKRQAMYRRGLEAFSAWLSGLNPPLPRPEAALV,soluble
18,MGSDKIHHHHHHMRHFIYQDEKSHKFRAVEQQGNELHISWGKVGTKGQSQIKSFSDAAAAAKAELKLIAEKVKKGYVEQAKDNSLQPSQTVTGSLKVADLSTIIQEQPSFVAETRAPDKNTDAVLPWLAKDIAVVFPPEVVHTTLSHRRFPGVPVQQADKLPQLRRLACSVSQRDNKTATFDFSACSLEWQNTVAQAISQIDGLKTTQLPSPVMAVLTALEMKCTRYKVREDVMDQIVQEGGLEYATDVIIHLQQIDIEWDYANNVIIILPSGIAPSYLEQYSRFE,not soluble
19,MELPVVDLSSYLDFSGDELGSDLLESCRQVSRILKETGALIVKDPRCCAQDNDRFIDMMENYFEKPDDFKRLQQRPNLHYQVGATPEGVEVPRSLVDEEMQEKFNTMPNEYKPHIPKGPDHKWRYMWRVGPRPSNTRFKELNSEPVVPEGFPGWEEVMDSWGYKMISAVEVVAEMAAIGFGLPKDAFTSLMKQGPHLLAPTGSDLNCYNEEGTIFAGYHYDLNFLTIHGRSRFPGLYIWLRNGEKVAVKVPVGCLLIQAGKQIEWLTAGECIAGMHEVVVTSKTKDAITLAKEQNRSLWRVSSTLFAHIASDAELKPLGHFAESSLASKYPAIPAGEYVEQELSVINLKGNKGSS,soluble
20,MAHLKKRNRLKKNEDFQKVFKHGTSVANRQFVLYTLDQPENDELRVGLSVSKKIGNAVMRNRIKRLIRQAFLEEKERLKEKDYIIIARKPASQLTYEETKKSLQHLFRKSSLYKKSSSK,soluble
21,GSPHMLSGSGLCNSSSALPLYNQQVGDCCIIRVSLDVDNGNMYKSILVTSQDKAPAVIRKAMDKHNLEEEEPEDYELLQILSDDRKLKIPENANVFYAMNSTANYDFVLKKRTFT,soluble
22,MSLDFKAIQALTANDMAKVNETIHAQLNSDVSLINQLGFYIISGGGKRLRPLLAVLSAKALGYQGSHHTTAAAFIEFIHTATLLHDDVVDESDLRRGKATANAAFGNAASVLVGDFIYTRSFQMMTELGSMKILKLMSDAVNVIAEGEVQQLMNCNDPDTTEASYMQVIYSKTARLFEAATQIGAILCDASPEVELAMQNYGKYLGTAFQLIDDVMDYTSDGDEMGKNVGDDLAEGKPTLPLLYAMQHGNPEQAAMIREAIEKANGMSRLNEILAAMEQTGSLQYTIEKALHEADKAIAELAILPESEYKQALITLAHMAVNRSKEGHHHHHH,soluble

# From the DeepSol protein solubility set
